Here are results for one molecule from article PMC3336104 (Molecular Cell, 2012).

For the assay, the target named is Glmn, purified, His6-MBP removed (human, UniProt Q92990 1-594). Description: SEC. Background: In gel filtration, larger molecules generally elute earlier.
Chain of Glmn, purified, His6-MBP removed (Q92990 whole entry): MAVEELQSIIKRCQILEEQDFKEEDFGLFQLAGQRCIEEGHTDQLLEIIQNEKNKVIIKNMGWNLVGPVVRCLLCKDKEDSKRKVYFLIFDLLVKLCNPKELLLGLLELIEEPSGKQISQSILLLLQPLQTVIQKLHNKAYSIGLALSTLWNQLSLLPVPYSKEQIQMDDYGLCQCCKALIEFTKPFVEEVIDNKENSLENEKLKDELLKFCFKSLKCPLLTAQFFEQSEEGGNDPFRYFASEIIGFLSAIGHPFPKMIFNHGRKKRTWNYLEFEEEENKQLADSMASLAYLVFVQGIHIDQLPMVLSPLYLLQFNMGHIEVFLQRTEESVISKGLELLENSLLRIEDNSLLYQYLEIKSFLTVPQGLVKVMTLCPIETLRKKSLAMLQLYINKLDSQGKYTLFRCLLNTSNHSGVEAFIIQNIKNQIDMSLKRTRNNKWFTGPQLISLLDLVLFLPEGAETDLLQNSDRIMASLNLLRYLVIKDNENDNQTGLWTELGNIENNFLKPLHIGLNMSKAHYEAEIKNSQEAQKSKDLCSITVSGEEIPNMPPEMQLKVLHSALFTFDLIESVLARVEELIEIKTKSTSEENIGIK

B1: Rbx1^RING, GST removed (domain or fragment)
chain: not shown
Regarding B1, the binding result was “binds”.
